{"source": "paper PMC12655427", "key": {"[1]": {"target": "recombinant soluble human FcRn variant FcRn-P2A (FcRn heavy α-chain extracellular domain with β2-microglobulin) (human) (UniProt P55899)", "experiment": "BLI; Octet RED96e; FcRn loaded at 5 µg/mL on HIS1K (anti-penta-HIS) biosensors; antibody 900 as analyte at 89.9 nM; global 1:1 model; pH 7.4–7.5"}, "[2]": {"target": "recombinant soluble human FcRn variant FcRn-E2A (FcRn heavy α-chain extracellular domain with β2-microglobulin) (human) (UniProt P55899)", "experiment": "BLI; Octet RED96e; FcRn loaded at 5 µg/mL on HIS1K (anti-penta-HIS) biosensors; antibody 900 as analyte at 89.9 nM; global 1:1 model; pH 7.4–7.5"}, "[3]": {"target": "recombinant soluble human FcRn variant FcRn-F2A (FcRn heavy α-chain extracellular domain with β2-microglobulin) (human) (UniProt P55899)", "experiment": "BLI; Octet RED96e; FcRn loaded at 5 µg/mL on HIS1K (anti-penta-HIS) biosensors; antibody 900 as analyte at 89.9 nM; global 1:1 model; pH 7.4–7.5"}, "[4]": {"target": "recombinant soluble human FcRn variant FcRn-P2A (FcRn heavy α-chain extracellular domain with β2-microglobulin) (human) (UniProt P55899)", "experiment": "BLI; Octet RED96e; FcRn loaded at 5 µg/mL on HIS1K (anti-penta-HIS) biosensors; antibody 900 as analyte at 89.9 nM; global 1:1 model; pH 6.0–6.1"}, "[5]": {"target": "recombinant soluble human FcRn variant FcRn-E2A (FcRn heavy α-chain extracellular domain with β2-microglobulin) (human) (UniProt P55899)", "experiment": "BLI; Octet RED96e; FcRn loaded at 5 µg/mL on HIS1K (anti-penta-HIS) biosensors; antibody 900 as analyte at 89.9 nM; global 1:1 model; pH 6.0–6.1"}, "[6]": {"target": "recombinant soluble human FcRn variant FcRn-F2A (FcRn heavy α-chain extracellular domain with β2-microglobulin) (human) (UniProt P55899)", "experiment": "BLI; Octet RED96e; FcRn loaded at 5 µg/mL on HIS1K (anti-penta-HIS) biosensors; antibody 900 as analyte at 89.9 nM; global 1:1 model; pH 6.0–6.1"}}, "data": [{"substance": "antibody 900 (variable regions of the light and heavy chains of the murine antibody 9E2 fused to the Fc fragment of human IgG1 with M252Y, S254T, T256E, E333A, H433K/N434F) (Fc fusion)", "values": [{"measurement": "Kd", "setting": "[1]", "value": 17.3, "unit": "nM"}, {"measurement": "Kd", "setting": "[2]", "value": 15.8, "unit": "nM"}, {"measurement": "Kd", "setting": "[3]", "value": 14.3, "unit": "nM"}, {"measurement": "Kd", "setting": "[4]", "value": 3.15, "unit": "nM"}, {"measurement": "Kd", "setting": "[5]", "value": 3.46, "unit": "nM"}, {"measurement": "Kd", "setting": "[6]", "value": 4.13, "unit": "nM"}]}]}
